Test results taken from patent US10428140B2, “Anti-EphA4 antibody” (EISAI R&D MANAGEMENT CO., LTD., priority 2015, dated 2019).
Numbering of substitutions follows the chain as printed. “And” between values parts separate entries of the source, which are not always exact repeats. Equal values may be shown once.

B1: 145 (antibody, V domains shown)
VH: QVQLVQSGSELKKPGASVKVSCKASGYTFTDYSMHWVRQAPGQGLKWMGWINTETGEPTYADDFKGRFVFSLDTSVSTAYLQISSLKAEDTAVYYCARIPLYYYGSRYWYFDVWGQGTTVTVSS
VL: DIQMTQSPSSLSASVGDRVTITCRASENIYRNLAWYQQKPGKAPKLLLYAATNLADGVPSRFSGSGSGTDYTLTISSLQSEDFATYYCQHFWGTPWTFGQGTKVEIK
modifications: synthetic humanized antibody heavy chain variable region sequence; synthetic humanized antibody light chain variable region sequence
B2: 155 (antibody, V domains shown)
VH: B1 VH with V2I
VL: B1 VL
modifications: synthetic humanized antibody heavy chain variable region sequence; synthetic humanized antibody light chain variable region sequence
B3: 157 (antibody, V domains shown)
VH: B1 VH with K46E, D62Q, D63G, K65T
VL: B1 VL with K45Q, S80P
modifications: synthetic humanized antibody heavy chain variable region sequence; synthetic humanized antibody light chain variable region sequence
B4: 158 (antibody, V domains shown)
VH: B1 VH with D62Q, D63G, K65T
VL: B1 VL with K45Q, S80P
modifications: synthetic humanized antibody heavy chain variable region sequence; synthetic humanized antibody light chain variable region sequence
B5: 144 (antibody, V domains shown)
VH: B1 VH with K46E
VL: B1 VL with K45Q, S80P
modifications: synthetic humanized antibody heavy chain variable region sequence; synthetic humanized antibody light chain variable region sequence
B6: 159 (antibody, V domains shown)
VH: B1 VH
VL: B1 VL with K45Q, S80P
modifications: synthetic humanized antibody heavy chain variable region sequence; synthetic humanized antibody light chain variable region sequence
B7: 160 (antibody, V domains shown)
VH: B1 VH with V2I
VL: B1 VL with K45Q, S80P
modifications: synthetic humanized antibody heavy chain variable region sequence; synthetic humanized antibody light chain variable region sequence
B8: 133 (antibody, V domains shown)
VH: B1 VH with K46E, D62Q, D63G, K65T
VL: EIVMTQSPATLSVSPGERATLSCRASENIYRNLAWYQQKPGQSPRLLIYAATNLADGIPARFSGSGSGTEYTLTISSLQSEDFAVYYCQHFWGTPWTFGQGTKVEIK
modifications: synthetic humanized antibody heavy chain variable region sequence; synthetic humanized antibody light chain variable region sequence
B9: 134 (antibody, V domains shown)
VH: B1 VH with D62Q, D63G, K65T
VL: B8 VL
modifications: synthetic humanized antibody heavy chain variable region sequence; synthetic humanized antibody light chain variable region sequence
B10: 132 (antibody, V domains shown)
VH: B1 VH with V2I, D62Q, D63G, K65T
VL: B8 VL
modifications: synthetic humanized antibody heavy chain variable region sequence; synthetic humanized antibody light chain variable region sequence
B11: 135 (antibody, V domains shown)
VH: B1 VH with K46E
VL: B8 VL
modifications: synthetic humanized antibody heavy chain variable region sequence; synthetic humanized antibody light chain variable region sequence
B12: 75 (antibody)
VH: B1 VH with K46E, D62Q, D63G, K65T
VL: B1 VL with L48V, S80P
chain: ASTKGPSVFPLAPSSKSTSGGTAALGCLVKDYFPEPVTVSWNSGALTSGVHTFPAVLQSSGLYSLSSVVTVPSSSLGTQTYICNVNHKPSNTKVDKRVEPKSCDKTHTCPPCPAPPAAAPSVFLFPPKPKDTLMISRTPEVTCVVVDVSHEDPEVQFNWYVDGVEVHNAKTKPREEQFNSTFRVVSVLTVVHQDWLNGKEYKCKVSNKGLPAPIEKTISKTKGQPREPQVYTLPPSREEMTKNQVSLTCLVKGFYPSDIAVEWESNGQPENNYKTTPPMLDSDGSFFLYSKLTVDKSRWQQGNVFSCSVMHEALHNHYTQKSLSLSPG
modifications: synthetic humanized antibody heavy chain variable region sequence; synthetic humanized antibody light chain variable region sequence; synthetic antibody constant region sequence
B13: 76 (antibody, V domains shown)
VH: B1 VH with D62Q, D63G, K65T
VL: B1 VL with L48V, S80P
modifications: synthetic humanized antibody heavy chain variable region sequence; synthetic humanized antibody light chain variable region sequence
B14: 67 (antibody, V domains shown)
VH: B1 VH with V2I, D62Q, D63G, K65T
VL: B1 VL with L48V, S80P
modifications: synthetic humanized antibody heavy chain variable region sequence; synthetic humanized antibody light chain variable region sequence
B15: 77 (antibody, V domains shown)
VH: B1 VH with K46E
VL: B1 VL with L48V, S80P
modifications: synthetic humanized antibody heavy chain variable region sequence; synthetic humanized antibody light chain variable region sequence
B16: 78 (antibody, V domains shown)
VH: B1 VH
VL: B1 VL with L48V, S80P
modifications: synthetic humanized antibody heavy chain variable region sequence; synthetic humanized antibody light chain variable region sequence

target: T1, human EphA4 (binding to human Ephrin A5) (Homo sapiens, UniProt P54764); experiment: Human EphA4-human ligand binding inhibition ELISA of humanized antibodies (biotinylated Ephrin A5-Fc); details: biotinylated human Ephrin A5-Fc 0.7 nM
T1 construct: made in house; not restated for the human SEAP-His protein
T1 sequence (P54764 20-547): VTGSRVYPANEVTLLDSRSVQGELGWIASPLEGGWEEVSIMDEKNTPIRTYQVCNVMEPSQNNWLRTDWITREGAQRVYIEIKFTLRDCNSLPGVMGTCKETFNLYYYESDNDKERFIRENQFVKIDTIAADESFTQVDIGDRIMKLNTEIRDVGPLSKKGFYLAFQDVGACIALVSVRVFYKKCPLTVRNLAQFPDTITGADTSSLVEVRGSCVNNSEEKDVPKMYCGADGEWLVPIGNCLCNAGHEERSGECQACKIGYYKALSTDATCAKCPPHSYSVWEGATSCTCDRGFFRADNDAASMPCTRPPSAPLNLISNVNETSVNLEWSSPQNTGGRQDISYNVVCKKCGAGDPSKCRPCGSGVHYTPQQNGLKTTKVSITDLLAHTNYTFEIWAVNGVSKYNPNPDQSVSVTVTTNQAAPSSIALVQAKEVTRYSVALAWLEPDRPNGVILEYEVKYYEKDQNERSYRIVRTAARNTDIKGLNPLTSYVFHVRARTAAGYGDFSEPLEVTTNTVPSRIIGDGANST
How it was run: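 Wells coated with anti-alkaline phosphatase antibody captured human EphA4 extracellular region-SEAP-His at 10 nM. Biotinylated human Ephrin A5-Fc (0.7 nM) and serially diluted humanized antibody (0-3000 nM) were added together for 1 h at room temperature. Bound ligand was detected with HRP-streptavidin and TMBZ at A450.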

Compared with B1, B2 is 1.5-fold lower in IC50: 3.7 nM for the first, 2.4 nM for the second. The second is the more potent here.

B3 and B4 are within 1.5-fold of each other in IC50: 2.6 nM for the first, 2.8 nM for the second.

B5 and B6 are within 1.5-fold of each other in IC50: 3.6 nM for the first, 2.6 nM for the second.

B7 and B8 are within 1.5-fold of each other in IC50: 2.2 nM for the first, 3 nM for the second.

B9 and B10 are within 1.5-fold of each other in IC50: 3 nM for the first, 3.1 nM for the second.

B11 and B12 are within 1.5-fold of each other in IC50: 2.5 nM for the first, 2.9 nM for the second.

First: B13
Second: B14
The IC50 of the first is 1.5-fold lower: 2.9 nM for the first, 4.4 nM for the second.

B15 and B16 are within 1.5-fold of each other in IC50: 3.5 nM for the first, 2.8 nM for the second.

target: T2, human EphA4 (Homo sapiens, UniProt P54764); experiment: Affinity of humanized antibodies by SPR (Biacore T200); format: binding; details: human EphA4 extracellular region-SEAP-His; 1:1 binding model
T2 construct: made in house; not restated for the human SEAP-His protein
T2 sequence (P54764 20-547): as above
How it was run: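 Humanized antibodies captured on protein A chip (antibody A via immobilized rat anti-mouse IgG1) at about 30 to 60 RU in HBS-EP; human EphA4 extracellular region-SEAP-His injected single-cycle at 0.6 to 50 nM, 120 s association, 900 s dissociation. KD = kd/ka from 1:1 binding fits.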

B1 and B2 are the same in ka: 330000 M⁻¹ s⁻¹ for the first, 330000 M⁻¹ s⁻¹ for the second.

B3 and B4 are within 1.5-fold of each other in ka: 350000 M⁻¹ s⁻¹ for the first, 310000 M⁻¹ s⁻¹ for the second.

B5 and B6 are within 1.5-fold of each other in ka: 400000 M⁻¹ s⁻¹ for the first, 310000 M⁻¹ s⁻¹ for the second.

B7 and B8 are within 1.5-fold of each other in ka: 320000 M⁻¹ s⁻¹ for the first, 300000 M⁻¹ s⁻¹ for the second.

B9 and B10 are within 1.5-fold of each other in ka: 280000 M⁻¹ s⁻¹ for the first, 270000 M⁻¹ s⁻¹ for the second.

B11 and B12 are within 1.5-fold of each other in ka: 320000 M⁻¹ s⁻¹ for the first, 380000 M⁻¹ s⁻¹ for the second.

B13 and B14 are the same in ka: 330000 M⁻¹ s⁻¹ for the first, 330000 M⁻¹ s⁻¹ for the second.

B15 and B16 are within 1.5-fold of each other in ka: 410000 M⁻¹ s⁻¹ for the first, 340000 M⁻¹ s⁻¹ for the second.

B1 and B2 are within 1.5-fold of each other in kd: 0.00065 s⁻¹ for the first, 0.00064 s⁻¹ for the second.

B3 and B5 are within 1.5-fold of each other in kd: 0.00068 s⁻¹ for the first, 0.00078 s⁻¹ for the second.

B6 and B7 are the same in kd: 0.00061 s⁻¹ for the first, 0.00061 s⁻¹ for the second.

B8 and B9 are the same in kd: 0.00032 s⁻¹ for the first, 0.00032 s⁻¹ for the second.

B10 and B11 are within 1.5-fold of each other in kd: 0.00031 s⁻¹ for the first, 0.0004 s⁻¹ for the second.

B12 and B13 are within 1.5-fold of each other in kd: 0.00042 s⁻¹ for the first, 0.00034 s⁻¹ for the second.

Compared with B14, B15 is 1.7-fold higher in kd: 0.00035 s⁻¹ for the first, 0.00058 s⁻¹ for the second.

B16 gave a kd of 0.00039 s⁻¹.

For B4, the kd was 0.00061 s⁻¹ and 0.00056 s⁻¹.

same assay, conditions: human EphA4 extracellular region-SEAP-His; KD=kd/ka

B1 and B2 are within 1.5-fold of each other in Kd: 2 nM for the first, 1.9 nM for the second.

B3 and B5 are the same in Kd: 2 nM for the first, 2 nM for the second.

B6 and B7 are within 1.5-fold of each other in Kd: 2 nM for the first, 1.9 nM for the second.

B8 and B9 are within 1.5-fold of each other in Kd: 1.1 nM for the first, 1.2 nM for the second.

B10 and B11 are within 1.5-fold of each other in Kd: 1.2 nM for the first, 1.3 nM for the second.

B12 and B13 are within 1.5-fold of each other in Kd: 1.2 nM for the first, 1 nM for the second.

B14 and B15 are within 1.5-fold of each other in Kd: 1.1 nM for the first, 1.4 nM for the second.

B16 was tested, and the Kd was 1.1 nM.

For B4, the Kd was 1.9 nM and 1.6 nM.
